Side chains are listed from the residue outwards. Ends that are not written are not given here.
Key:
[1] = system: MRP1; details: cited from earlier work
Description: Other ABC transporters like P-glycoprotein have a biphasic substrate dependent ATPase activity. […] Basal ATPase activity of MRP1 is 3-fold stimulated by its substrate leucotriene C4, which forms contacts to both halfs o ...

[2] = target: T1, coreTAPL (core complex of the transporter associated with antigen processing-like, ABCB9) fused C-terminally … (human, UniProt Q9NP78 143-766); assay: MST; 100 nM 9-mer^Atto-655 peptide with increasing TAPL concentrations; 20 mM HEPES, 140 mM NaCl, 0.05% DDM, 15% glycerol, pH 7.5; 22 °C; one-site binding model; details: both partners purified
T1 construct: TAPL (ABCB9), human, core complex without TMD0, amino acids 143-766 of UniProt Q9NP78; source: reconstituted into proteoliposomes for transport and ATPase assays; not shown: mVenus, C-terminal, kept
T1 sequence (looked up): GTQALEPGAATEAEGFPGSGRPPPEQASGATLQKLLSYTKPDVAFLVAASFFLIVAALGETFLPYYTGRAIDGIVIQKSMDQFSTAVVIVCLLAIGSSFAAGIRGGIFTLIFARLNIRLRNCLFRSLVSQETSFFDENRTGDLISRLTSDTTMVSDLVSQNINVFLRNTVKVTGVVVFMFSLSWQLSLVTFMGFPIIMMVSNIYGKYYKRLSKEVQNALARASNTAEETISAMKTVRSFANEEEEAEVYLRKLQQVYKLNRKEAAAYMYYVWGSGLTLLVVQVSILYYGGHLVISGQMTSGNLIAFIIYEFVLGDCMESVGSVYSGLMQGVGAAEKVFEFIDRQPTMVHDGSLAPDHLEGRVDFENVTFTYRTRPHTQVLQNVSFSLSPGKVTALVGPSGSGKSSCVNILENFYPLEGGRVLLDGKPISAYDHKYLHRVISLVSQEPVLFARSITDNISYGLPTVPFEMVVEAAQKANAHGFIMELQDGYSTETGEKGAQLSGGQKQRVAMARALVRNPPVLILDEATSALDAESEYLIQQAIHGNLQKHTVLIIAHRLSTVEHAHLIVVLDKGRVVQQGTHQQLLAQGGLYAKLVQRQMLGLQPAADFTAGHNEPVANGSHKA

[3] = target: T1, coreTAPL (core complex of the …); assay: MST; competition: 100 nM 9-mer^Atto-655 peptide and 10 µM TAPL with unlabeled competitor peptide (18-mer titrated; 9-mer at 4 mM); 22 °C; Ki fitted considering competitor depletion; details: both partners purified
[4] = target: T1, coreTAPL (core complex of the …); assay: cell-based or functional assay
[5] = target: T2, coreTAPL (core complex of the transporter associated with antigen processing-like, ABCB9) fused C-terminally to mVenus (human) (UniProt Q9NP78)
T2 sequence: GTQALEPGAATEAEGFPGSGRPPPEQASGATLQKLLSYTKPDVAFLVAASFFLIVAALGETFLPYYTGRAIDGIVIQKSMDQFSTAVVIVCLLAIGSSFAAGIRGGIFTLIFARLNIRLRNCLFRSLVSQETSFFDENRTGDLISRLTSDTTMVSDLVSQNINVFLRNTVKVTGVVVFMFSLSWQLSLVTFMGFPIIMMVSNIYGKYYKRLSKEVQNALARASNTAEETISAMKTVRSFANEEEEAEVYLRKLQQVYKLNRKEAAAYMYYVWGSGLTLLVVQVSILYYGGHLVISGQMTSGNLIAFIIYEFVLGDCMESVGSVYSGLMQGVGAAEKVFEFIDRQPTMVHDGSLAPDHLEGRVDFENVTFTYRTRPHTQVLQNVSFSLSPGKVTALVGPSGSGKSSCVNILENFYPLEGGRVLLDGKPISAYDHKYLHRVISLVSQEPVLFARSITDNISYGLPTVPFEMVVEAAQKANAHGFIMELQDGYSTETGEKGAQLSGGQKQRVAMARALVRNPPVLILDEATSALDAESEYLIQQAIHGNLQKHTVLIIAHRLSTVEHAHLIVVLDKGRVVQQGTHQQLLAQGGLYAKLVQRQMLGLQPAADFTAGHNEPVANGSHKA

[6] = target: T2, coreTAPL (core complex of the transporter associated with antigen processing-like, ABCB9) fused C-terminally to mVenus (human); remark: listed apart in the source
[7] = target: T2, coreTAPL (core complex of the transporter associated with antigen processing-like, ABCB9) fused C-terminally to mVenus (human); remark: listed apart in the source

## CCCCC/C=C\C\C=C/C=C/C=C/[C@@H](SC[C@H](NC(=O)CC[C@H](N)C(=O)O)C(=O)NCC(=O)O)[C@@H](O)CCCC(=O)O [leucotriene C4]
[1]
  fold stimulation of basal ATPase activity: 3 fold

B1: Atto-655 labeled 9-mer peptide RRYC^Atto-655KSTEL (peptide)
peptide: RRYC(Atto‑655 maleimide)KSTEL
notes: source: synthetic peptide (solid phase synthesis)
[2]
  Kd: 5.4 ± 0.8 µM

B2: 18-mer peptide RRYQKSTELRRYQKSTEL (peptide)
peptide: RRYQKSTELRRYQKSTEL
notes: also called unlabeled 18-mer peptide; source: synthetic peptide (solid phase synthesis; Charité, Berlin)
[3]
  Ki: 11.8 ± 3.6 µM
[4]
  IC50 of inhibition of ATP hydrolysis of reconstituted TAPL by peptide (malachite green assay, 3 mM ATP, 37 °C): 15 µM

## RRYC(5‑iodoacetamidofluorescein)KSTEL [fluorescein labeled 9-mer peptide RRYC^FluoresceinKSTEL]
[5]
  K (m(pep)) of 9-mer transport into TAPL proteoliposomes in the presence of 3 mM GTP: 4.4 µM
[6]
  K (m(Pep)) of 9-mer^FL peptide transport into TAPL proteoliposomes at 24 °C, 3 mM ATP: 10.8 µM
  K (m(Pep)) of 9-mer^FL peptide transport into TAPL proteoliposomes at 33 °C, 3 mM ATP: 15.3 µM
  K (m(Pep)) of 9-mer^FL peptide transport into TAPL proteoliposomes at 42 °C, 3 mM ATP: 17.3 µM
[7]
  K (m(Pep)) of peptide transport into TAPL proteoliposomes, 3 mM ATP, 15 min, 37 °C: 15 µM

## RRYQKSTELRRYC(5‑iodoacetamidofluorescein)KSTEL [fluorescein labeled 18-mer peptide …]
[7]
  K (m(Pep)) of peptide transport into TAPL proteoliposomes, 3 mM ATP, 15 min, 37 °C: 7 µM

## RYCK([Lys-Lys-Lys-Lys-Lys-Lys-Lys-Lys])STEL (also: octa-lysine attached by isopeptide bonds) [branched 16-mer peptide RYCK(K8)STEL]
[7]
  IC50 of inhibition of ATP hydrolysis of reconstituted TAPL by peptide (malachite green assay, 3 mM ATP, 37 °C): 22 µM

## RYC(5‑iodoacetamidofluorescein)K([Lys-Lys-Lys-Lys-Lys-Lys-Lys-Lys])STEL (also: octa-lysine attached by isopeptide bonds) [fluorescein labeled branched 16-mer peptide RYCK(K)8STEL]
[7]
  K (m(Pep)) of peptide transport into TAPL proteoliposomes, 3 mM ATP, 15 min, 37 °C: 8 µM

Reference: PMC6695453, “Peptide translocation by the lysosomal ABC transporter TAPL is regulated by coupling efficiency and activation energy” (Scientific Reports, 2019)
